This note sets out measurements from publication PMC6731152 (Molecular cell, 2019).

The data set “SEC” concerns the molecule itself. Briefly: SEC. On the technique in general: Size exclusion chromatography separates by hydrodynamic size, large species first.
The data set “cryo-EM structure” deals with the molecule itself. Put plainly: cryo-EM structure.

B1: ^coreAFG3L2^WB/PI/Δ781−797 (domain or fragment)
chain: not shown
For the protein B1, the binding result in the data set “SEC” was “binds”.

B2: ^coreAFG3L2^WB/PI (human AFG3L2 catalytic core, residues 272-797, E408Q/E575Q) (domain or fragment)
chain: not shown
Broadly, the stoichiometry N is a count of units in the complex or per binding partner. As to B2, the “stoichiometry N” value in the data set “cryo-EM structure” was 6.
